From paper doi:10.1101/2023.09.10.557050 (bioRxiv, 2023)
Where a chain is given by its changes, count along the chain named. In names and notes the source's numbering stands. Read-outs that look alike come from different tables or passages of the source. Blank lines part the entries; values can stand above or below the binder they belong to.

Experiments:
Assay in all cases: cryo-EM structure
cryo-EM structure [1] = target: the molecule itself
cryo-EM structure [2] = target: the molecule itself; remark: listed apart in the source
[3] = target: T1, EcNhaA WT-like triple mutant (A109T, Q277G, L296M) (E. coli), P13738; conditions: remark: other sources report otherwise
T1 chain: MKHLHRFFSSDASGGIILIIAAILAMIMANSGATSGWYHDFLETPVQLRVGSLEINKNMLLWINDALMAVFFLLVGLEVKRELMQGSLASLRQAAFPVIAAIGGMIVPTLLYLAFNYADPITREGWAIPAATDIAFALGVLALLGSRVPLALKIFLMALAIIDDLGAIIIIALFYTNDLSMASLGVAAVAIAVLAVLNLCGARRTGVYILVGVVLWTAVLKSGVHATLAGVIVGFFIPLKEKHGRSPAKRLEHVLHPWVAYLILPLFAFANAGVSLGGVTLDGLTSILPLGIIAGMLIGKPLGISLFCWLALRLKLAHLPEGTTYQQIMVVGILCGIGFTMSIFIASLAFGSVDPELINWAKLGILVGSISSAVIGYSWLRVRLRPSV

B1: horse NHE9* (residues 8 to 575), tag removed (domain or fragment, UniProt F7B113 8-575, looked up)
chain: MSEKDEYQFQHQGAVELLVFNFLLILTILTIWLFKNHRFRFLHETGGAMVYGLIMGLILRYATAPTDIESGTVYDCGKLAFSPSTLLINITDQVYEYKYKREISQHNINPHLGNAILEKMTFDPEIFFNVLLPPIIFHAGYSLKKRHFFQNLGSILTYAFLGTAISCIVIGLIMYGFVKAMVYAGQLKNGDFHFTDCLFFGSLMSATDPVTVLAIFHELHVDPDLYTLLFGESVLNDAVAIVLTYSISIYSPKENPNAFDAAAFFQSVGNFLGIFAGSFAMGSAYAVVTALLTKFTKLCEFPMLETGLFFLLSWSAFLSAEAAGLTGIVAVLFCGVTQAHYTYNNLSLDSKMRTKQLFEFMNFLAENVIFCYMGLALFTFQNHIFNALFILGAFLAIFVARACNIYPLSFLLNLGRKHKIPWNFQHMMMFSGLRGAIAFALAIRDTESQPKQMMFSTTLLLVFFTVWVFGGGTTPMLTWLQIRVGVDLDEDLKERPSSHQEANNLEKSTTKTESAWLFRMWYGFDHKYLKPILTHSGPPLTTTLPEWCGPISRLLTSPQAYGEQLKED
stoichiometry N (cryo-EM structure [1]): 2

B2: horse NHE9*CC (L139C-I444C double mutant), tag removed (domain or fragment, UniProt F7B113 8-575, looked up)
chain: B1 chain with L132C, I437C
stoichiometry N (cryo-EM structure [2]): 2

stoichiometry N [3]: 2
B3: EcNhaA WT-like triple mutant (A109T, Q277G, L296M), P13738 1-388 (natural protein)
chain: T1 chain
